From US20240383967A1 (UNIVERSITY OF SOUTHERN CALIFORNIA, published 2024)

Columns and labels:
Recombinant human CTSL [1] = biological target: T1, Recombinant human CTSL (human, UniProt P07711 114-333); assay: fluorogenic protease activity assay (Z-FR-AMC), initial rates fitted to the competitive inhibition equation
T1 construct: Bought; also called cathepsin L
Experimental: (§1) The inhibition activity of Her-HC-CTSSpp IgG was then examined with human CTSS through fluorescence-based activity assays using a fluorogenic peptide substrate Z-VVR-AMC (FIG. 5). […] CTSS and CTSL belong to the same subfamily of cathepsins. And the propeptide of proCTSS is a known inhibitor of CTSL (28,29). Therefore, the activity of Her-HC-CTSSpp IgG in inhibiting human CTSL was evaluated with a fluorogenic peptide substrate Z-FR-AMC (FIG. 5). […] To further study inhibition specificity of Her-HC-CTSSpp IgG, fluorescence-based activity assays for human CTSB and bovine trypsin were carried out in the absence or presence of Her-HC-CTSSpp IgG.
(§2) Next, inhibition potency and specificity of the designed Syn-LC-CTSSpp Fab antibody were analyzed by fluorescence-based proteolytic activity assays. […] Likewise, Syn-LC-CTSSpp Fab functions as a weaker antibody inhibitor against human CTSL.

Recombinant human CTSS = biological target: T2, Recombinant human CTSS (human, UniProt P25774 115-331); assay: fluorogenic protease activity assay (Z-VVR-AMC), initial rates fitted to the competitive inhibition equation
T2 construct: Bought from R&D Systems (1183-CY-010); also called cathepsin S
Experimental: as §1, §2

Recombinant human CTSL [2] = biological target: T1, Recombinant human CTSL; assay: ratio of Ki values from fluorogenic protease activity assays

T1 sequence (P07711 114-333): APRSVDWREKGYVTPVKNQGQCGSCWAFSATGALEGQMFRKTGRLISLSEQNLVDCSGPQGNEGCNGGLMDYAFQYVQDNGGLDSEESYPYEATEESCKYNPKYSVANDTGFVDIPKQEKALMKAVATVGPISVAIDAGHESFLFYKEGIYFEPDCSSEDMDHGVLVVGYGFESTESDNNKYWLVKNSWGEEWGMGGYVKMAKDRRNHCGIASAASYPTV

Row | Binder | Ki (Recombinant human CTSL [1]) [nM] | Ki (Recombinant human CTSS) [nM] | fold decrease of potency for CTSL in comparison to CTSS (Recombinant human CTSL [2]) [fold]
1 | Her-HC-CTSSpp IgG (antibody, Full-length IgG expressed in Expi293F cells and purified on protein G. The propeptide of proCTSS is grafted into CDR3H of the anti-HER2 antibody Herceptin) heavy: EVQLVESGGGLVQPGGSLRLSCAASGFNIKDTYIHWVRQAPGKGLEWVARIYPTNGYTRYADSVKGRFTISADTSKNTAYLQMNSLRAEDTAVYYCSRGGSGAKLAALKAKLAALKCGGGGSIEGRQLHKDPTLDHHWHLWKKTYGKQYKEKNEEAVRRLIWEKNLKFVMLHNLEHSMGMHSYDLGMNHLGDMTSEEVMSLMSSLRVPSQWQRNITYKSNPNRGGGGSCELAALEAELAALEAGGSGDYWGQGTLVTVSSASTKGPSVFPLAPSSKSTSGGTAALGCLVKDYFPEPVTVSWNSGALTSGVHTFPAVLQSSGLYSLSSVVTVPSSSLGTQTYICNVNHKPSNTKVDKKVEPKSCDKTHTCPPCPAPPVAGPSVFLFPPKPKDTLMISRTPEVTCVVVDVSHEDPEVKFNWYVDGVEVHNAKTKPREEQYNSTYRVVSVLTVLHQDWLNGKEYKCKVSNKGLPSSIEKTISKAKGQPREPQVYTLPPSRDELTKNQVSLTCLVKGFYPSDIAVEWESNGQPENNYKTTPPVLDSDGSFFLYSKLTVDKSRWQQGNVFSCSVMHEALHNHYTQKSLSLSPGK light: not shown | 49.3 | 6.03 | 
2 | Syn-LC-CTSSpp Fab (Fab) light: QLHKDPTLDHHWHLWKKTYGKQYKEKNEEAVRRLIWEKNLKFVMLHNLEHSMGMHSYDLGMNHLGDMTSEEVMSLMSSLRVPSQWQRNITYKSNPNRGGGGSDIQMTQSPSTLSASVGDRVTITCKCQLSVGYMHWYQQKPGKAPKLLIYDTSKLASGVPSRFSGSGSGTEFTLTISSLQPDDFATYYCFQGSGYPFTFGGGTKLEIKRTVAAPSVFIFPPSDEQLKSGTASVVCLLNNFYPREAKVQWKVDNALQSGNSQESVTEQDSKDSTYSLSSTLTLSKADYEKHKVYACEVTHQGLSSPVTKSFNRGEC heavy: QVTLRESGPALVKPTQTLTLTCTFSGFSLSTSGMSVGWIRQPPGKALEWLADIWWDDKKDYNPSLKSRLTISKDTSKNQVVLKVTNMDPADTATYYCARSMITNWYFDVWGAGTTVTVSSASTKGPSVFPLAPSSKSTSGGTAALGCLVKDYFPEPVTVSWNSGALTSGVHTFPAVLQSSGLYSLSSVVTVPSSSLGTQTYICNVNHKPSNTKVDKKVEPKSCDKTHT | 24.5 | 2.12 | ~12
